Source: the Immune Epitope Database (IEDB)
pIC50, pKd: −log10 of the molar value.

Experiments:
HLA-B*51:01 [1] = assay: IEDB peptide-MHC binding, purified MHC/competitive/radioactivity; filed as Kd, often an IC50 or EC50 that approximates it; ≥ and ≤ were set here for values at or beyond the usual limits of such assays
HLA-B*53:01 [2] = assay: as above
HLA-B*35:01 [3] = assay: as above
HLA-B*07:02 [4] = assay: IEDB peptide-MHC binding, purified MHC/competitive/radioactivity; ≥ and ≤ were set here for values at or beyond the usual limits of such assays
HLA-B*54:01 [5] = assay: as above
HLA-B*54:01 [6] = assay: IEDB peptide-MHC binding, purified MHC/competitive/radioactivity; filed as Kd, often an IC50 or EC50 that approximates it; ≥ and ≤ were set here for values at or beyond the usual limits of such assays
HLA-B*07:02 [7] = assay: as above
HLA-B*51:01 [8] = assay: IEDB peptide-MHC binding, purified MHC/competitive/radioactivity; ≥ and ≤ were set here for values at or beyond the usual limits of such assays
HLA-B*35:01 [9] = assay: as above
HLA-B*53:01 [10] = assay: as above
[11] = source organism: human papillomavirus 11
[12] = source organism: human papillomavirus 18
[13] = source organism: Hepatitis C virus (isolate Taiwan)
[14] = source organism: Human immunodeficiency virus 1
[15] = source organism: Candida albicans

Sequence: SPISNVANA
- pKd (HLA-B*51:01 [1]; [11]): 5.26
- pKd (HLA-B*53:01 [2]; [11]): ≤ 4.60
- pKd (HLA-B*35:01 [3]; [11]): ≤ 4.60
- pIC50 (HLA-B*07:02 [4]; [11]): 6.18
- pIC50 (HLA-B*54:01 [5]; [11]): 7.25

Sequence: SPLGERLEV
- pKd (HLA-B*51:01 [1]; [12]): ≤ 4.60
- pKd (HLA-B*53:01 [2]; [12]): ≤ 4.60
- pKd (HLA-B*54:01 [6]; [12]): 5.04
- pKd (HLA-B*35:01 [3]; [12]): ≤ 4.60
- pIC50 (HLA-B*07:02 [4]; [12]): 7.38

Sequence: FPYLVAYQA
- pKd (HLA-B*53:01 [2]; [13]): 5.77
- pKd (HLA-B*07:02 [7]; [13]): 4.74
- pIC50 (HLA-B*51:01 [8]; [13]): 7.24

Sequence: IPEPEGPDA
- pKd (HLA-B*51:01 [1]; source organism: Homo sapiens): 5.26
- pKd (HLA-B*53:01 [2]; source organism: Homo sapiens): ≤ 4.60
- pKd (HLA-B*07:02 [7]; source organism: Homo sapiens): ≤ 4.60
- pKd (HLA-B*54:01 [6]; source organism: Homo sapiens): ≤ 5.30
- pKd (HLA-B*35:01 [3]; source organism: Homo sapiens): ≤ 4.60

Sequence: FPVRPQVPT
- pKd (HLA-B*51:01 [1]; [14]): 5.89
- pKd (HLA-B*53:01 [2]; [14]): 5.89
- pIC50 (HLA-B*07:02 [4]; [14]): 6.42
- pIC50 (HLA-B*54:01 [5]; [14]): 8.74
- pIC50 (HLA-B*35:01 [9]; [14]): 7.59

Sequence: LPQPPICTI
- pIC50 (HLA-B*51:01 [8]; source organism: Homo sapiens): 8.37
- pIC50 (HLA-B*07:02 [4]; source organism: Homo sapiens): 6.62
- pIC50 (HLA-B*54:01 [5]; source organism: Homo sapiens): 7.70

Sequence: FPVRPQVPM
- pKd (HLA-B*51:01 [1]; [14]): 5.89
- pIC50 (HLA-B*53:01 [10]; [14]): 7.49
- pIC50 (HLA-B*07:02 [4]; [14]): 8.42
- pIC50 (HLA-B*54:01 [5]; [14]): 7.10
- pIC50 (HLA-B*35:01 [9]; [14]): 7.89

Sequence: EPGPVTAQV
- pKd (HLA-B*53:01 [2]; source organism: Homo sapiens): ≤ 4.60
- pKd (HLA-B*35:01 [3]; source organism: Homo sapiens): ≤ 4.60
- pIC50 (HLA-B*51:01 [8]; source organism: Homo sapiens): 7.55
- pIC50 (HLA-B*07:02 [4]; source organism: Homo sapiens): 6.04
- pIC50 (HLA-B*54:01 [5]; source organism: Homo sapiens): 6.32

Sequence: FPVRPQVPI
- pIC50 (HLA-B*51:01 [8]; [14]): 7.83
- pIC50 (HLA-B*53:01 [10]; [14]): 7.52
- pIC50 (HLA-B*07:02 [4]; [14]): 7.65
- pIC50 (HLA-B*54:01 [5]; [14]): 8.80
- pIC50 (HLA-B*35:01 [9]; [14]): 6.93

Sequence: LPTNASLSF
- pKd (HLA-B*54:01 [6]; source organism: Homo sapiens): ≤ 4.60
- pIC50 (HLA-B*51:01 [8]; source organism: Homo sapiens): 6.09
- pIC50 (HLA-B*53:01 [10]; source organism: Homo sapiens): 7.47
- pIC50 (HLA-B*35:01 [9]; source organism: Homo sapiens): 6.94

Sequence: FAVRPQVPL
- pKd (HLA-B*53:01 [2]; [14]): 5.21
- pKd (HLA-B*07:02 [7]; [14]): 5.89
- pKd (HLA-B*54:01 [6]; [14]): 5.37
- pIC50 (HLA-B*51:01 [8]; [14]): 6.23
- pIC50 (HLA-B*35:01 [9]; [14]): 6.83

Sequence: HPEDTGQVF
- pKd (HLA-B*51:01 [1]; source organism: Homo sapiens): 5.71
- pKd (HLA-B*54:01 [6]; source organism: Homo sapiens): ≤ 4.60
- pIC50 (HLA-B*53:01 [10]; source organism: Homo sapiens): 6.39
- pIC50 (HLA-B*35:01 [9]; source organism: Homo sapiens): 6.69

Sequence: LPFRNCPRF
- pKd (HLA-B*07:02 [7]; source organism: Homo sapiens): 5.95
- pIC50 (HLA-B*51:01 [8]; source organism: Homo sapiens): 7.85
- pIC50 (HLA-B*53:01 [10]; source organism: Homo sapiens): 6.21
- pIC50 (HLA-B*54:01 [5]; source organism: Homo sapiens): 6.57
- pIC50 (HLA-B*35:01 [9]; source organism: Homo sapiens): 6.40

Sequence: MPREDAHFI
- pIC50 (HLA-B*51:01 [8]; source organism: Homo sapiens): 9.34
- pIC50 (HLA-B*53:01 [10]; source organism: Homo sapiens): 8.18
- pIC50 (HLA-B*54:01 [5]; source organism: Homo sapiens): 6.53
- pIC50 (HLA-B*35:01 [9]; source organism: Homo sapiens): 6.35

Sequence: FPVRPQVPL
- pIC50 (HLA-B*51:01 [8]; [14]): 6.17
- pIC50 (HLA-B*53:01 [10]; [14]): 6.72

Sequence: QPKKVKRRL
- pKd (HLA-B*51:01 [1]; [11]): 5.49
- pKd (HLA-B*53:01 [2]; [11]): ≤ 4.60
- pKd (HLA-B*07:02 [7]; [11]): 5.54
- pKd (HLA-B*54:01 [6]; [11]): ≤ 4.60
- pKd (HLA-B*35:01 [3]; [11]): ≤ 4.60

Sequence: FPASFFIKL
- pIC50 (HLA-B*51:01 [8]; [15]): 8.06
- pIC50 (HLA-B*53:01 [10]; [15]): 8.17
- pIC50 (HLA-B*07:02 [4]; [15]): 7.85
- pIC50 (HLA-B*54:01 [5]; [15]): 7.82
- pIC50 (HLA-B*35:01 [9]; [15]): 7.82

Sequence: FPPEGVSIW
- pKd (HLA-B*07:02 [7]; source organism: Homo sapiens): ≤ 4.60
- pKd (HLA-B*54:01 [6]; source organism: Homo sapiens): 5.41
- pKd (HLA-B*35:01 [3]; source organism: Homo sapiens): 5.37
- pIC50 (HLA-B*51:01 [8]; source organism: Homo sapiens): 7.68
- pIC50 (HLA-B*53:01 [10]; source organism: Homo sapiens): 7.80

Sequence: YPCTVNFTI
- pKd (HLA-B*07:02 [7]; [13]): 4.97
- pIC50 (HLA-B*51:01 [8]; [13]): 7.92
- pIC50 (HLA-B*53:01 [10]; [13]): 6.99
